Measurements from PMC3020742 (The Journal of Biological Chemistry, 2010).

B1: MyD88 R98C DD, purified from bacteria (domain or fragment)
chain: SLPLAALNMRVRRRLSLFLNVRTQVAADWTALAEEMDFEYLEIRQLETQADPTGRLLDAWQGRPGASVGRLLELLTKLGCDDVLLELGPSI
B2: Renilla luciferase-tagged IRAK4 DD (residues 1-106) (domain or fragment)
chain: MNKPITPSTYVRCLNVGLIRKLSDFIDPQEGWKKLAVAIKKPSGDDRYNQFHIRRFEALLQTGKSPTSELLFDWGTTNCTVGDLVDLLIQNEFFAPASLLLPDAVP

Legend:
SEC = target: the molecule itself; experiment: SEC
[1] = target: MyD88 R98C DD-ID (residues 1-156), Protein A-tagged (LUMIER) (human, UniProt Q99836 1-156, R98C); experiment: LUMIER
Chain of MyD88 R98C DD-ID (residues 1-156), Protein A-tagged (LUMIER) (Q99836 1-156 R98C): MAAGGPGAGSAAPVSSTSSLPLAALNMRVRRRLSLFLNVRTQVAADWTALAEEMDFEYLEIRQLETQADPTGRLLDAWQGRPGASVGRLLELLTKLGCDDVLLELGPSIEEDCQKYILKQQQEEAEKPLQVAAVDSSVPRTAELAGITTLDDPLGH

[2] = target: MyD88 S34Y DD-ID (residues 1-156), Protein A-tagged (LUMIER) (human, UniProt Q99836 1-156, S34Y); experiment: LUMIER
Chain of MyD88 S34Y DD-ID (residues 1-156), Protein A-tagged (LUMIER) (Q99836 1-156 S34Y): as the sequence (Q99836 1-156 R98C) above, with S34Y, C98R counted along it

Row | Binder | stoichiometry N (SEC) | fold reduction of binding against WT DD [1] [fold] | fold reduction of binding against WT DD [2] [fold]
1 | B1 | 2 | – | –
2 | B2 | – | > 10 | > 10
